{"source": "paper PMC4184033", "about": "(Nature structural & molecular biology, 2011)", "binders": {"B1": {"name": "Cdc45 (natural protein, Drosophila melanogaster, UniProt O96989 1-575, looked up)", "chain": "MFVQDLRNDFYRQLVGKRILIVVNYDIDAICASRILQALFKYDHMLYTVVPIMGVTGLKRAYGEHQGDVKYVVLVNCGGCVDIVELLQPSDDVTFFICDSHRPLDVCNIYSDRQVCILGDASLEENIPAFETIFYDSEGEDEDEDESSDTEQQHDDSGAGESDQEDQAPRSRKLSRLERHEQRILKQRARRQWESERDRIMFEYTQFSYYGRSAALMVFELAWKLSKDNMDLLWWAIVGITEQLLLGKIESGAYTLELEQIQSHVSRLTNKTNDQNTMSASKITFENDLHLVLYRHWPVTESMRYSRYSSCQLKLWTLRGEKRLHELLLEMGLPLVHARQTYGAMDLVLRKEFFSMVERLAEKYDIADIVYGTFTLSYGYRSRYAAADYVYALLAIMESVKKHKTPEDCFLEASDALSRQHKQLLSAGIDQAKLLHAAVFRQVQSSLEARQVHSAGSFFYYVLQEEHAFFSYPYALGLLARFLLRGHVATSRARQASDLPLIASCPLNASEGMCLLVGIVPVREDSPRNFFGKAFEQAAQKSGVALLQDFFEPAVVQLRQSDLTRFLDSLTVLLA"}}, "test_in_all_cases": "negative-stain single-particle EM", "key": {"Mcm2": {"target": "T1, Mcm2 (Drosophila melanogaster, UniProt P49735 1-887)", "T1 sequence (looked up)": "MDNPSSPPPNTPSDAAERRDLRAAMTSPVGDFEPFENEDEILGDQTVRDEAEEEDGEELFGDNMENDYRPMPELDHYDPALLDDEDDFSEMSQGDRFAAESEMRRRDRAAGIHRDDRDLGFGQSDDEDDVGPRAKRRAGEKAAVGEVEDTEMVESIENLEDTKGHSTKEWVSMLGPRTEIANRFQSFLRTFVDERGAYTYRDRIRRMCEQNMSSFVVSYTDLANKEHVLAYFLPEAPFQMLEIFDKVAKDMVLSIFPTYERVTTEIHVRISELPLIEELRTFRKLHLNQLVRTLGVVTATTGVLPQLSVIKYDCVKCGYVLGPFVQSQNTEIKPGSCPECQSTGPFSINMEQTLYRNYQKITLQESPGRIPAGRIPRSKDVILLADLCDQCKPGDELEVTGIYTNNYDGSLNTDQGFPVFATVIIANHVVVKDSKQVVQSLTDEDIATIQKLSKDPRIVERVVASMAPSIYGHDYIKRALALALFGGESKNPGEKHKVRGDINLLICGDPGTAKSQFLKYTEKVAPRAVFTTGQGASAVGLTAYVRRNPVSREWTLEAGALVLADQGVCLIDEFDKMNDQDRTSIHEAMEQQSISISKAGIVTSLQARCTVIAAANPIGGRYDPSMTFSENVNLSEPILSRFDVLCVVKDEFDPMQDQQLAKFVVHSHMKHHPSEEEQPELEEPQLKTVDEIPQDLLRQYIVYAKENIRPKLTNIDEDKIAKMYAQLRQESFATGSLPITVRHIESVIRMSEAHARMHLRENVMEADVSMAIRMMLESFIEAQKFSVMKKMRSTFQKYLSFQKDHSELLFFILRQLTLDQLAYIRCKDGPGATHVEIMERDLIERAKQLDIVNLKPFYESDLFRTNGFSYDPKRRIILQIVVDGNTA"}, "Mcm5": {"target": "T2, Mcm5 (Drosophila melanogaster, UniProt Q9VGW6 1-733)", "T2 sequence (looked up)": "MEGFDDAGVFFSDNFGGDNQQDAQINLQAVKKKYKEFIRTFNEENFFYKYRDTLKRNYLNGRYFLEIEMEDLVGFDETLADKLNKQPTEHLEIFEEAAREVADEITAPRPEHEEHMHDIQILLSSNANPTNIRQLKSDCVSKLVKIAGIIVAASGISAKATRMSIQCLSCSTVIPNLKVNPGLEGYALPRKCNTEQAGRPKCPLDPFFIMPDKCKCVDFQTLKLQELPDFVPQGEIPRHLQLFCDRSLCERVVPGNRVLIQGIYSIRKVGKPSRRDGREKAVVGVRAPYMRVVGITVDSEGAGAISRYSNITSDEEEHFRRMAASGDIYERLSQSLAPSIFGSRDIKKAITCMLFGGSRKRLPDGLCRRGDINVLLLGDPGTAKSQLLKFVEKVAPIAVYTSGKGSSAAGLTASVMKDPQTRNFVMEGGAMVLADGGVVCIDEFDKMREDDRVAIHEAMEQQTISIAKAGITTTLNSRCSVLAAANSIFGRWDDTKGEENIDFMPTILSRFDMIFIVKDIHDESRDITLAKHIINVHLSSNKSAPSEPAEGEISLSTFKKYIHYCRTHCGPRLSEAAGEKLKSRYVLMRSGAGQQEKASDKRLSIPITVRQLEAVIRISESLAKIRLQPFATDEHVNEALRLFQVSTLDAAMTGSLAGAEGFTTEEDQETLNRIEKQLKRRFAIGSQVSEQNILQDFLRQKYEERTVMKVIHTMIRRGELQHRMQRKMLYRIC"}, "Cdc45": {"target": "B1"}}}
{"binder": "B1", "values": [{"measurement": "binding result", "setting": "Mcm2", "value": "binds"}]}
{"binder": "Psf2 (natural protein, Drosophila melanogaster, UniProt Q9VQY9 1-203, looked up) MDPSIIEFIGEKCMISIIPNFSNEPLHLIYGPVGPFRAGFPVFVPLWMATHLRKQQKCRIVPPEWMDMDILEEIKEEEKRSKFFTKMPCEHYMVVAQLVMSTAPDDVPRCEELRTVIKDIFDIRESKLRTSIDAFIKGEGTYAKLDNLTLLEIHSVRPILPYSLDHIARYQRTATASQRDTSMLSASMAGSSSGPNSNSLFSQ", "values": [{"measurement": "binding result", "setting": "Mcm5", "value": "binds"}, {"measurement": "binding result", "setting": "Cdc45", "value": "binds"}]}
